The values that follow come from publication PMC4880913, “Solution structure and binding specificity of the p63 DNA binding domain”.

Data set [1] has as its target T1, p63-DBD (UniProt Q9H3D4 153-388).
T1 sequence: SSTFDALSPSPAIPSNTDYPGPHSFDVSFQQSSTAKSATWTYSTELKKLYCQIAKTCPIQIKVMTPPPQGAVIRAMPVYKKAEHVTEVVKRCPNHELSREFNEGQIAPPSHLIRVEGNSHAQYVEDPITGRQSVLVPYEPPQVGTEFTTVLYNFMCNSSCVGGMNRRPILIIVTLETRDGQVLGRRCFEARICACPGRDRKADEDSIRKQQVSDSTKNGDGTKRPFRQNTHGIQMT
Briefly: NMR titration (1H-15N TROSY); 100 mM NaCl; FP: 100 nM 5'-fluorescein dsDNA, 10 mM sodium phosphate pH 7.2, 1 mM DTT, temperature not stated; NMR: 1 mM sodium phosphate pH 7.2, 100 mM NaCl, 5 mM DTT, 303. To be noted: protein: recombinant; tags: His-tag removed with thrombin (pET28a construct); blunt.

Data set [2] deals with T2, p63-DBD L210E (UniProt Q9H3D4 153-388, L249E).
T2 sequence: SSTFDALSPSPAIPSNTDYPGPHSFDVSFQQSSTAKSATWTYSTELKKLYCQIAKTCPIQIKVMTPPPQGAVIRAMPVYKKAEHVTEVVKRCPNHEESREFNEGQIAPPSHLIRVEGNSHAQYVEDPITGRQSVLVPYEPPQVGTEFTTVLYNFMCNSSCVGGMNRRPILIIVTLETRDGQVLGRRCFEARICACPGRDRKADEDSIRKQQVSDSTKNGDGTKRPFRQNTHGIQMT
The data set can be described thus: fluorescence polarization; FP: 100 nM 5'-fluorescein dsDNA, 10 mM sodium phosphate pH 7.2, 1 mM DTT, temperature not stated; NMR: 1 mM sodium phosphate pH 7.2, 100 mM NaCl, 5 mM DTT, 303. To be noted: protein: recombinant; label: 5'-fluorescein; blunt. (In general: Polarisation of emitted light reports the rotation of a fluorescent probe.)

The target in data set [3] is p53-DBD (UniProt P04637 94-312). The data set is described as above. The following applies: protein: recombinant; chain copies: 2; label: 5'-fluorescein; blunt.
p53-DBD, sequence (P04637 94-312): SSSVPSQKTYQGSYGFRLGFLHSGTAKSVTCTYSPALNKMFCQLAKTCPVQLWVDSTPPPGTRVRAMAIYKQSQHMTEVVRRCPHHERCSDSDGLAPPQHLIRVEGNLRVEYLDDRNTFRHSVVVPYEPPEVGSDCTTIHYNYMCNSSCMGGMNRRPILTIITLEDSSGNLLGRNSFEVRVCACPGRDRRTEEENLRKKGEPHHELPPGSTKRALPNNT

B1: con2 x 5 (NMR) (dsDNA)
DNA 1: TTAGGACATGTCCATC
DNA 2: GATGGACATGTCCTAA
On to B1, for which the binding result in data set [1] is reported as “binds”.

B2: con2 x 5 (FP) (dsDNA)
DNA 1: TTAGGACATGTCCATC
DNA 2: GATGGACATGTCCTAA
As for B2, the binding result in data set [2] and in data set [3] was “binds” in each case.
